Test results as given in publication doi:10.1101/2025.04.07.647567 (bioRxiv, 2025).

B1: GAS6 in mouse lung tissue (ligand)
chain: VLLRAREAAQFLRPRQRRAYQVFEEAKQGHLERECVEEVCSKEEAREVFENDPETEYFYPRYQECMRKYGRPEEKNPDFAKCVQNLPDQCTPNPCDKKGTHICQDLMGNFFCVCTDGWGGRLCDKDVNECVQKNGGCSQVCHNKPGSFQCACHSGFSLASDGQTCQDIDECTDSDTCGDARCKNLPGSYSCLCDEGYTYSSKEKTCQDVDECQQDRCEQTCVNSPGSYTCHCDGRGGLKLSPDMDTCEDILPCVPFSMAKSVKSLYLGRMFSGTPVIRLRFKRLQPTRLLAEFDFRTFDPEGVLFFAGGRSDSTWIVLGLRAGRLELQLRYNGVGRITSSGPTINHGMWQTISVEELERNLVIKVNKDAVMKIAVAGELFQLERGLYHLNLTVGGIPFKESELVQPINPRLDGCMRSWNWLNGEDSAIQETVKANTKMQCFSVTERGSFFPGNGFATYRLNYTRTSLDVGTETTWEVKVVARIRPATDTGVLLALVGDDDVVPISVALVDYHSTKKLKKQLVVLAVEDVALALMEIKVCDSQEHTVTVSLREGEATLEVDGTKGQSEVSTAQLQERLDTLKTHLQGSVHTYVGGLPEVSVISAPVTAFYRGCMTLEVNGKILDLDTASYKHSDITSHSCPPVEHATP

How the values were obtained:
[1] = molecular target: recombinant human AXL, biotinylated (human) (UniProt P30530); test: SPR
AXL in mouse lung tissue = molecular target: T1, AXL in mouse lung tissue (mouse (endogenous in mouse lung tissue), UniProt Q00993 19-888); test: FRET or BRET
T1 sequence: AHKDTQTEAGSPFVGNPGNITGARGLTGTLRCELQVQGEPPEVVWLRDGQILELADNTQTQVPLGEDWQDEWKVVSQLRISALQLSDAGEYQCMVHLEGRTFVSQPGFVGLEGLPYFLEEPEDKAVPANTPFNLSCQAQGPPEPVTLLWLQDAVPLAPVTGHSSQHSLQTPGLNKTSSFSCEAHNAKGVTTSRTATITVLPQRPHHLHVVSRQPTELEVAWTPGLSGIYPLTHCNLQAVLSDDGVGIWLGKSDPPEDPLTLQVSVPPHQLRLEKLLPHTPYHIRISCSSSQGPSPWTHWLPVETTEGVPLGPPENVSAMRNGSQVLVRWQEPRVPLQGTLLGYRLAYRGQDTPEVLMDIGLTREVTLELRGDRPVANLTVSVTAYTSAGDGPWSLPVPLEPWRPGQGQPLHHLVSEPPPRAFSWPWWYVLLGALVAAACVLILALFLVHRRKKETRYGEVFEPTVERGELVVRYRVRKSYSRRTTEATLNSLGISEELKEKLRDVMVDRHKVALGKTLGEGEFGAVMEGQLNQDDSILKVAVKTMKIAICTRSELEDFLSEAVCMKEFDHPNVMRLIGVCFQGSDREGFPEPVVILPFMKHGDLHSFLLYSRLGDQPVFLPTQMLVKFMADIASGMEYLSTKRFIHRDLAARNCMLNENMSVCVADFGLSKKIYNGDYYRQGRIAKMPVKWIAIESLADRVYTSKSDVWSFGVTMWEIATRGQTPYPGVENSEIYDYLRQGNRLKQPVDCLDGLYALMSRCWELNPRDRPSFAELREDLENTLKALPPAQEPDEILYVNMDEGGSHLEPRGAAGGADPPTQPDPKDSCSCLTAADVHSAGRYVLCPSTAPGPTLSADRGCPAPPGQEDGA

Sequence of recombinant human AXL, biotinylated (human) (P30530 26-894): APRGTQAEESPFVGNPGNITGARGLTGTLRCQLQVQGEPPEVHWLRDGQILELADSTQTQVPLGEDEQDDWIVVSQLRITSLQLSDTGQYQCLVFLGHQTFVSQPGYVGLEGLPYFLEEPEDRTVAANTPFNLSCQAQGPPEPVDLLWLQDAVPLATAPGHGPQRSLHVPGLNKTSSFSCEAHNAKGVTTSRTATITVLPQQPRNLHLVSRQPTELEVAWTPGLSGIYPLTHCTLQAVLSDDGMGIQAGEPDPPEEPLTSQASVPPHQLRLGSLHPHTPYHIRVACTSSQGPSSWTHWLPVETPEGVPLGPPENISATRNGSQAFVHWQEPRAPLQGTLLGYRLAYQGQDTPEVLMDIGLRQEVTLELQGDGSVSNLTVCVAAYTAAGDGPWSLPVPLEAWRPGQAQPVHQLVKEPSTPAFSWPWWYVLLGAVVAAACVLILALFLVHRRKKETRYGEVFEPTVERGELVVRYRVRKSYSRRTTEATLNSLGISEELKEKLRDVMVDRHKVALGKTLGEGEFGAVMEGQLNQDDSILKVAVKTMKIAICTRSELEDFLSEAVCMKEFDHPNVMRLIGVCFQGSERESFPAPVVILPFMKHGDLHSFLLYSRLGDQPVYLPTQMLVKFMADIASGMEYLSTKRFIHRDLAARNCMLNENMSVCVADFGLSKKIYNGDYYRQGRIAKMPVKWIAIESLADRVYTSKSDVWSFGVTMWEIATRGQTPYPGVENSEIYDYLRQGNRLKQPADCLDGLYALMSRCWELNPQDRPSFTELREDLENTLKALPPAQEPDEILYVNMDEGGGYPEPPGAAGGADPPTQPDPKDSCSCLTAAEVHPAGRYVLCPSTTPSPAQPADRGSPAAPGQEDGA

Molecule | Kd [1] | FRET efficiency (%Ef) of one coincident region (AXL in mouse lung tissue)
recombinant human PROS1 (from UniProt P07225 42-676) (ligand) | 52.1 nM | –
recombinant human GAS6 (from UniProt Q14393 31-678) (ligand) | 0.11 nM | –
B1 | – | 6.96%
